According to patent US20050037404A1:

Molecular target: all of the coactivators tested
Test: cell-based or functional assay

B1: VP16 transactivation domain linked to the ligand binding domain of SXR (VP-L-SXR), P06492 413-490; O75469 107-434 (protein)
chain: APPTDVSLGDELHLDGEDVAMAHADALDDFDLDMLGDGDSPGPGFTPHDSAPYGALDMADFEFEQMFTDALGIDEYGGMKKEMIMSDEAVEERRALIKRKKSERTGTQPLGVQGLTEEQRMMIRELMDAQMKTFDTTFSHFKNFRLPGVLSSGCELPESLQAPSREEAAKWSQVRKDLCSLKVSLQLRGEDGSVWNYKPPADSGGKEIFSLLPHMADMSTYMFKGIISFAKVISYFRDLPIEDQISLLKGAAFELCQLRFNTVFNAETGTWECGRLSYCLEDTAGGFQQLLLEPMLKFHYMLKKLQLHEEEYVLMQAISLFSPDRPGVLQHRVVDQLQEQFAITLKSYIECNRPQPAHRFLFLKIMAMLTELRSINAQHTQRLLRIQDIHPFATPLMQELFGITGS
Work on B1 yielded a Gal4 reporter activity in mammalian two-hybrid assay, 10 µM docetaxel against 10 µM paclitaxel (% less than with paclitaxel) of 25 to 40.
